Positions count from the first letter of the chain named. Names may count otherwise.

19 molecules from PMC5799168 (Scientific Reports, 2018) can be followed below.

The chains are these.
B1: L444D: recombinant Ndi1 mutant L444D (protein, UniProt P32340 27-513, looked up, variant L444D)
Rotenone-insensitive …: STGVENSGAGPTSFKTMKVIDPQHSDKPNVLILGSGWGAISFLKHIDTKKYNVSIISPRSYFLFTPLLPSAPVGTVDEKSIIEPIVNFALKKKGNVTYYEAEATSINPDRNTVTIKSLSAVSQLYQPENHLGLHQAEPAEIKYDYLISAVGAEPNTFGIPGVTDYGHFLKEIPNSLEIRRTFAANLEKANLLPKGDPERRRLLSIVVVGGGPTGVEAAGELQDYVHQDLRKFLPALAEEVQIHLVEALPIVLNMFEKKLSSYAQSHLENTSIKVHLRTAVAKVEEKQLLAKTKHEDGKITEETIPYGTLIWATGNKARPVITDLFKKIPEQNSSKRGLAVNDFLQVKGSNNIFAIGDNAFAGLPPTAQVAHQEAEYLAKNFDKMAQIPNFQKNLSSRKDKIDLLFEENNFKPFKYNDDGALAYLGSERAIATIRSGKRTFYTGGGLMTFYLWRILYLSMILSARSRLKVFFDWIKLAFFKRDFFKGL
B2: L447N: recombinant Ndi1 mutant L447N (protein, UniProt P32340 27-513, looked up, variant L447N)
Rotenone-insensitive …: B1 Rotenone-insensitive … with D418L, L421N
B3: Q394A: recombinant Ndi1 mutant Q394A (protein, UniProt P32340 27-513, looked up, variant Q394A)
Rotenone-insensitive …: B1 Rotenone-insensitive … with Q368A, D418L
B4: M485A: recombinant Ndi1 mutant M485A (protein, UniProt P32340 27-513, looked up, variant M485A)
Rotenone-insensitive …: B1 Rotenone-insensitive … with D418L, M459A
B5: R479I: recombinant Ndi1 mutant R479I (protein, UniProt P32340 27-513, looked up, variant R479I)
Rotenone-insensitive …: B1 Rotenone-insensitive … with D418L, R453I
B6: Q394G: recombinant Ndi1 mutant Q394G (protein, UniProt P32340 27-513, looked up, variant Q394G)
Rotenone-insensitive …: B1 Rotenone-insensitive … with Q368G, D418L
B7: I459W: recombinant Ndi1 mutant I459W (protein, UniProt P32340 27-513, looked up, variant I459W)
Rotenone-insensitive …: B1 Rotenone-insensitive … with D418L, I433W
B8: Y482F: recombinant Ndi1 mutant Y482F (protein, UniProt P32340 27-513, looked up, variant Y482F)
Rotenone-insensitive …: B1 Rotenone-insensitive … with D418L, Y456F
B9: R479A: recombinant Ndi1 mutant R479A (protein, UniProt P32340 27-513, looked up, variant R479A)
Rotenone-insensitive …: B1 Rotenone-insensitive … with D418L, R453A
B10: S484I: recombinant Ndi1 mutant S484I (protein, UniProt P32340 27-513, looked up, variant S484I)
Rotenone-insensitive …: B1 Rotenone-insensitive … with D418L, S458I
B11: S484F: recombinant Ndi1 mutant S484F (protein, UniProt P32340 27-513, looked up, variant S484F)
Rotenone-insensitive …: B1 Rotenone-insensitive … with D418L, S458F
B12: I459A: recombinant Ndi1 mutant I459A (protein, UniProt P32340 27-513, looked up, variant I459A)
Rotenone-insensitive …: B1 Rotenone-insensitive … with D418L, I433A
B13: W63F: recombinant Ndi1 mutant W63F (protein, UniProt P32340 27-513, looked up, variant W63F)
Rotenone-insensitive …: B1 Rotenone-insensitive … with W37F, D418L
B14: R479H: recombinant Ndi1 mutant R479H (protein, UniProt P32340 27-513, looked up, variant R479H)
Rotenone-insensitive …: B1 Rotenone-insensitive … with D418L, R453H
B15: H397A: recombinant Ndi1 mutant H397A (protein, UniProt P32340 27-513, looked up, variant H397A)
Rotenone-insensitive …: B1 Rotenone-insensitive … with H371A, D418L
B16: R479K: recombinant Ndi1 mutant R479K (protein, UniProt P32340 27-513, looked up, variant R479K)
Rotenone-insensitive …: B1 Rotenone-insensitive … with D418L, R453K
B17: A393G: recombinant Ndi1 mutant A393G (protein, UniProt P32340 27-513, looked up, variant A393G)
Rotenone-insensitive …: B1 Rotenone-insensitive … with A367G, D418L
B18: M485E: recombinant Ndi1 mutant M485E (protein, UniProt P32340 27-513, looked up, variant M485E)
Rotenone-insensitive …: B1 Rotenone-insensitive … with D418L, M459E
B19: P92A: recombinant Ndi1 mutant P92A (protein, UniProt P32340 27-513, looked up, variant P92A)
Rotenone-insensitive …: B1 Rotenone-insensitive … with P66A, D418L

The first data set has as its system wild-type and mutant Ndi1. Briefly: Kinetic parameters of the oxidoreductase activity of wild-type and mutant Ndi1 for ubiquinone-1. The class given is biochemical, Saccharomyces cerevisiae. The conditions noted are these: apparent Km for ubiquinone-1 (2.4–60 µM), NADH fixed at 100 µM. The protocol: This unique structure appears to be related to the competitive nature of the inhibition of Ndi1 oxidoreductase activity by stigmatellin. It is therefore hypothesized that L444, I459, R460, and S461, which interact with stigmatellin at the STG-1a site, are also involved in the binding of the substrate ubiquinone (Fig. 5). This hypothesis was evaluated by examining the effects of mutations of the proximal L444 and I459 on the kinetics of the enzymatic reaction of Ndi1. The effect of the mutation of S484, which specifically interacts with stigmatellin at the STG-1b site, was examined as a control. Furthermore, the effects of mutations of W63, P92, A393, Q394, H397, L447, Y482, M485, and L487, which interact with the aromatic head group of stigmatellin at the STG-1a and STG-1b sites, were also examined. Moreover, to investigate the functional role of the STG-2 site in ubiquinone binding, a mutation was also introduced to R479.
NADH-ubiquinone oxidoreductase activity was measured as described previously. In brief, the reaction was started by adding 100 µM NADH to the enzyme mixture containing 10 ng/mL Ndi1, 50 mM sodium phosphate (pH 6.0) and 1 mM EDTA, which was pre-incubated with various concentrations of ubiquinone-1 for 1 min. The decrease in 340 nm absorbance was measured as an indication of the oxidation of NADH (ε = 6.22 mM^−1 cm^−1) with a Shimadzu UV2000 spectrophotometer (Kyoto, Japan). The enzymatic activity obtained with 100 µM NADH and 60 µM ubiquinone-1 in the absence of any inhibitors (100% activity) catalyzed the oxidation of 1,890 μmol NADH/min/mg Ndi1. The concentrations of inhibitors required to obtain the half-maximal inhibition (IC50) were estimated by non-linear regression dose-response curves. The inhibition mode of each inhibitor for ubiquinone-1 was determined by the intersection point in double-reciprocal plots (Fig. 2B–E). To objectively evaluate the inhibition mode, the data of the inhibition kinetics were fitted to the Eq. (1) of mixed model inhibition in the Prism6 software program (GraphPad Software, Inc., La Jolla, CA).1 V=Vmax[S]/[S](1+[I]/αKi)+Km(1+[I]/Ki) […]
To determine the kinetic parameters of wild-type and mutant enzymes for ubiquinone-1, the NADH oxidation rates were measured in a fixed concentration of NADH (100 µM) and different concentrations of ubiquinone-1 (2.4–60 µM). Apparent Km and Vmax values were obtained by fitting a data set of initial velocity versus substrate concentration to the Michaelis-Menten model equation in the Prism6 software program.
Site-directed mutagenesis. The amino acid replacements of Ndi1 were basically performed with PrimeSTAR mutagenesis basal kit (Takara, Japan) using pET16b(NDI1-m) (2) and a synthetic oligonucleotide primer set (Table S2). The mutagenesis of H397 was performed with a QuikChange II XL site-directed mutagenesis kit (Stratagene, CA). Each mutation was confirmed through DNA sequencing (DNA sequencing service, Eurofins). The purification procedure of wild-type and mutant enzymes, used for the determination of the kinetic parameters (Table 2), was basically the same as the above procedure, without the replacement of the detergent from Triton X -100 with DDM. After washing the enzyme with buffer A containing 0.1% Triton X-100 and 15 mM histidine, 0.02% Triton X-100 was added to all buffer as a substitute for DDM. With the exception of 5 mutants containing L444D, I459A, […]
yield of the wild-type enzyme. […]
Turning to B1, the Michaelis constant (Km) came out at 37.6 ± 3.9 µM.
Consider B2, for which the Km amounted to 17.9 ± 1.8 µM.
On the same count and under the same terms, the same measure for B3: 24.5 ± 1.7 µM; for B4: 18.6 ± 1.1 µM.
On the same count and under the same terms, the same measure for B5: 27.7 ± 1.2 µM; for B6: 30.8 ± 3.4 µM; for B7: 75.6 ± 12 µM.
Same read-out and setting: as for B8, the figure is 23.3 ± 2 µM; as for B9, 11.5 ± 0.58 µM.
As to B10, the Michaelis constant (Km) was 25 ± 1.7 µM.
On the same count and under the same terms, as for B11, the figure is 24.5 ± 3.9 µM; as for B12, 40.2 ± 4.1 µM; as for B13, 53.1 ± 6.4 µM.
On the same count and under the same terms, as for B14, the figure is 23.5 ± 1.4 µM.
For the molecule B15, the Km came out at 35 ± 2.7 µM.
Same read-out and setting: the same measure for B16: 9.37 ± 0.48 µM; for B17: 32.5 ± 1.9 µM.
The same measure, in the same setting: the same measure for B18: 63.5 ± 7.8 µM; for B19: 25.6 ± 2.2 µM.

Still in this data set, the particulars now being: relative to wild-type Ndi1.
On to B1, for which the “increase of Km value for ubiquinone-1 in comparison to wild-type enzyme” value (“increase of Km value” below) was found to be 1.7 fold.
For B2, the “Vmax, % of the wild-type activity” value is recorded as 13%.
Regarding B3, the “Vmax, % of the wild-type activity” value was determined as 37%.
The same measure, in the same setting: the same measure for B4: 28%.
For B6, the “Vmax, % of the wild-type activity” value was 43% and the “increase of Km value” value came out at 1.4 fold.
As for B7, the “increase of Km value” value is given as 3.3 fold.
Turning to B9, the “Vmax, % of the wild-type activity” value amounted to 30%.
B12: the “increase of Km value” value is listed as 1.8 fold.
In the case of B13, the “Vmax, % of the wild-type activity” value is 137% and the “increase of Km value” value amounted to 2.3 fold.
As to B14, the “Vmax, % of the wild-type activity” value was 0.1%.
For B15, the “Vmax, % of the wild-type activity” value came out at 44% and the “increase of Km value” value is reported as 1.5 fold.
For B16, the “Vmax, % of the wild-type activity” value was 29%.
On to B17, for which the “Vmax, % of the wild-type activity” value worked out at 83% and the “increase of Km value” value was 1.4 fold.
As for B18, the “Vmax, % of the wild-type activity” value was determined as 112% and the “increase of Km value” value worked out at 2.8 fold.
Consider B19, for which the “Vmax, % of the wild-type activity” value stood at 1%.

The data set is the same for the next values; noted with them: ubiquinone-1 as substrate (2.4–60 µM), NADH fixed at 100 µM.
Take B1: the Vmax amounted to 447 ± 6.8 µmol/min/mg.
Still for that read-out and setting: as for B2, the figure is 140 ± 7.1 µmol/min/mg; as for B3, 391 ± 3.3 µmol/min/mg; as for B4, 292 ± 9.9 µmol/min/mg.
On to B5, for which the Vmax was 0.313 ± 0.007 µmol/min/mg.
Consider B6, for which the maximal velocity (Vmax) turned out to be 452 ± 8.1 µmol/min/mg.
Same read-out and setting: as for B7, the figure is 58.0 ± 1.5 µmol/min/mg; as for B8, 1090 ± 45 µmol/min/mg; as for B9, 316 ± 6.1 µmol/min/mg.
As to B10, the Vmax worked out at 1010 ± 33 µmol/min/mg.
Same read-out and setting: the same measure for B11: 1160 ± 120 µmol/min/mg; for B12: 2.90 ± 0.0042 µmol/min/mg; for B13: 1450 ± 27 µmol/min/mg.
With B14, the maximum rate (Vmax) amounted to 1.06 ± 0.035 µmol/min/mg.
As to B15, the Vmax was 463 ± 17 µmol/min/mg.
On the same count and under the same terms, the same measure for B16: 305 ± 5.8 µmol/min/mg; for B17: 882 ± 7.6 µmol/min/mg.
Still for that read-out and setting: the same measure for B18: 1190 ± 96 µmol/min/mg.
In the case of B19, the Vmax amounted to 11.3 ± 0.4 µmol/min/mg.
